Experimental data reported in patent US20220064254A1 (Janssen / Centocor, published 2022).
Changes are numbered by the printed parent chain.

B1: CAR19 (KL2B359_HL) (other)
chain: QVQLQESGPGLVKPSQTLSLTCTVSGNSITSDYAWNWIRQFPGKRLEWIGYISYSGSTTYNPSLKSRVTISRDTSKNQFSLKLSSVTAADTAVYYCATGYYYGSGFWGQGTLVTVSSGGSEGKSSGSGSESKSTGGSEIVLTQSPATLSLSPGERATLSCRASESVEYFGTSLMHWYQQKPGQPPRLLIYAASNVESGIPARFSGSGSGTDFTLTISSVEPEDFAVYFCQQTRKVPYTFGGGTKVEIKTSTPAPRPPTPAPTIASQPLSLRPEACRPAAGGAVHTRGLDFACDIYIWAPLAGTCGVLLLSLVITLYCKRGRKKLLYIFKQPFMRPVQTTQEEDGCSCRFPEEEEGGCELRVKFSRSADAPAYKQGQNQLYNELNLGRREEYDVLDKRRGRDPEMGGKPRRKNPQEGLYNELQKDKMAEAYSEIGMKGERRRGKGHDGLYQGLSTATKDTYDALHMQALPPR
notes: also called KL2B359 HL CAR; rehumanized 11B6 HL CAR
B2: CAR17 (KL2B413_HL) (other)
chain: EVQLVESGGGLVQPGGSLRLSCAASGFTFSSYWMTWVRQAPGKGLEWVANIKQDGSERYYVDSVKGRFTISRDNAKNSLYLQMNSLRAEDTAVYYCARDQNYDILTGHYGMDVWGQGTTVTVSSGGSEGKSSGSGSESKSTGGSEIVLTQSPSFLSASVGDRVTITCRASQGISSYLSWYQQKPGKAPKLLIYATSTLQSGVPSRFSGSGSGTEFTLTISSLQPEDFATYYCQQLNSYPRTFGQGTKVEIKTSTPAPRPPTPAPTIASQPLSLRPEACRPAAGGAVHTRGLDFACDIYIWAPLAGTCGVLLLSLVITLYCKRGRKKLLYIFKQPFMRPVQTTQEEDGCSCRFPEEEEGGCELRVKFSRSADAPAYKQGQNQLYNELNLGRREEYDVLDKRRGRDPEMGGKPRRKNPQEGLYNELQKDKMAEAYSEIGMKGERRRGKGHDGLYQGLSTATKDTYDALHMQALPPR
notes: also called KL2B413 HL CAR; pBD000091628
B3: KL2B467 (antibody, V domains shown)
VH: QVQLVESGGGVVQPGRSLRLSCAASGFTFSYYGMHWVRQAPGKGLEWVAFISYDGSNKYYADSVKGRFTISRDNSKNTLYLQMNSLRAEDTAVYYCAHLPYSGSYWAFDYWGQGTQVTVSS
VL: QSVLTQPPSVSVAPGQTASITCGGDNIGSKSVHWYQQKPGQAPVLVVYDNSDRPSGIPERFSGSNSGTTATLTISRVEAGDEADYYCQVWDSSSDHPVVFGGGTKVTVLG
notes: also called KL2B467 (Fab); KL2B467 Fab
B4: KL2B494 (antibody, V domains shown)
VH: QVQLVESGGGLVQPGGSLRLSCAASGFTFSHYAMSWVRQAPGKGLEWVSTIGGSGGSTYYADSVKGRFTISRDNSKNTLYLQMNSLRAEDTAVYYCAKPHIVMVTALLYDGMDVWGQGTMVTVSS
VL: SSELTQPPSVSVAPGQTARITCGGNNIGSKSVHWYQQKPGQAPVLVVYDDSDRPSGIPERFSGSNSGNTATLTISRVEAGDEADYYCQVWDSSSDHVVFGGGTKLTVLG
notes: also called KL2B494 (Fab); KL2B494 Fab
B5: KL2B242 (antibody, human IgG4 S228P, lambda, F234A L235A, V domains shown)
VH: QVQLQESGPGLVKPSETLSLTCTVSGGSISSYYWSWLRQPAGSGLEWIGRLYVSGFTNYNPSLKSRVTLSLDPSRNQLSLKLSSVTAADTAVYYCAGDSGNYWGWFDPWGQGTLVTVSS
VL: SYELTQPPSVSVSPGETASITCSGDQLGENYACWYQQKPGQSPVLVIYQDSKRPSGIPERFSGSNSGNTATLTISGTQALDEADYYCQAWDNSIVVFGGGTKLTVLG
notes: also called KL2B242 (Fab); KL2B242 Fab
B6: KL2B53 (antibody, V domains shown)
VH: EVQLVESGGGVVQPGRSLRLSCVASGFTFSSYDIHWVRQAPGKGLEWVAIISYDGSKKDYTDSVKGRFTISRDNSKNTLYLQMDSLRVEDSAVYSCARESGWSHYYYYGMDVWGQGTMVTVSS
VL: DIVMTQSPSSLSASVGDRVTITCRASQDISNYLAWYQQKPGKVPKFLIYAASTLHSGVPSRFSGSGSGTDFTLTISSLQPEDVATYYCQKYNSAPYTFGQGTRLEIKR
notes: also called KL2B53 (Fab); KL2B53 Fab
B7: KL2B30 (antibody, V domains shown)
VH: QVQLQESGPGLVKPSETLSLTCTVSGGSISSYYWSWIRQPPGKGLEWIGYIYYSGSTNYNPSLKSRVTISVDTSKNQFSLKLSSVTAADTAVYYCAGTTIFGVVTPNFYYGMDVWGQGTTVTVSS
VL: DIQMTQSPSFLSASVGDRVTITCRASQGISSYLAWYQQKPGKAPKFLIYAASTLQSGVPSRFSGSGSGTEFTLTISSLQPEDFATYYCQQLNSYPLTFGGGTKVEIKR
notes: also called KL2B30 (Fab); KL2B30 Fab
B8: KL2B413 (scFv) (scFv, V domains shown)
VH: EVQLVESGGGLVQPGGSLRLSCAASGFTFSSYWMTWVRQAPGKGLEWVANIKQDGSERYYVDSVKGRFTISRDNAKNSLYLQMNSLRAEDTAVYYCARDQNYDILTGHYGMDVWGQGTTVTVSS
VL: EIVLTQSPSFLSASVGDRVTITCRASQGISSYLSWYQQKPGKAPKLLIYATSTLQSGVPSRFSGSGSGTEFTLTISSLQPEDFATYYCQQLNSYPRTFGQGTKVEIK
B9: KL2B359 (scFv) (scFv, V domains shown)
VH: QVQLQESGPGLVKPSQTLSLTCTVSGNSITSDYAWNWIRQFPGKRLEWIGYISYSGSTTYNPSLKSRVTISRDTSKNQFSLKLSSVTAADTAVYYCATGYYYGSGFWGQGTLVTVSS
VL: EIVLTQSPATLSLSPGERATLSCRASESVEYFGTSLMHWYQQKPGQPPRLLIYAASNVESGIPARFSGSGSGTDFTLTISSVEPEDFAVYFCQQTRKVPYTFGGGTKVEIK
notes: also called Clone KL2B359; rehumanized 11B6
B10: CAR4 (HL_HCG5_LCB7_20AA) (other)
chain: QVQLQESGPGLVKPSDTLSLTCAVSGNSITSDYAWNWIRQFPGKGLEWMGYISYSGSTTYNPSLKSRVTISRDTSKNQFSLKLSSVTPVDTAVYYCATGYYYGSGFWGQGTLVTVSSGGSEGKSSGSGSESKSTGGSDIVLTQSPDSLAVSLGERATINCKASESVEYFGTSLMHWYQQKPGQPPKLLIYAASNRESGVPDRFSGSGSGTDFTLTISSVQAEDVAVYYCQQTRKVPYTFGQGTKLEIKTSTPAPRPPTPAPTIASQPLSLRPEACRPAAGGAVHTRGLDFACDIYIWAPLAGTCGVLLLSLVITLYCKRGRKKLLYIFKQPFMRPVQTTQEEDGCSCRFPEEEEGGCELRVKFSRSADAPAYKQGQNQLYNELNLGRREEYDVLDKRRGRDPEMGGKPRRKNPQEGLYNELQKDKMAEAYSEIGMKGERRRGKGHDGLYQGLSTATKDTYDALHMQALPPR
notes: also called construct 4; pDR000083437
B11: CAR2 (HL_HCG5_LCHumanized_20AA) (other)
chain: B10 chain with V219L
notes: also called construct 2
B12: CAR1 (HL_HCG5_LCD6_20AA) (other)
chain: B10 chain with S217Q, A225S, Y228F
notes: also called construct 1; pDR000083431
B13: CAR3 (HL_HCF3_LCB7_20AA) (other)
chain: B10 chain with M49I
notes: also called construct 3; pDR000083436
B14: CAR9 (LH_LCB7_HCG5_20AA) (other)
chain: DIVLTQSPDSLAVSLGERATINCKASESVEYFGTSLMHWYQQKPGQPPKLLIYAASNRESGVPDRFSGSGSGTDFTLTISSVQAEDVAVYYCQQTRKVPYTFGQGTKLEIKGGSEGKSSGSGSESKSTGGSQVQLQESGPGLVKPSDTLSLTCAVSGNSITSDYAWNWIRQFPGKGLEWMGYISYSGSTTYNPSLKSRVTISRDTSKNQFSLKLSSVTPVDTAVYYCATGYYYGSGFWGQGTLVTVSSTSTPAPRPPTPAPTIASQPLSLRPEACRPAAGGAVHTRGLDFACDIYIWAPLAGTCGVLLLSLVITLYCKRGRKKLLYIFKQPFMRPVQTTQEEDGCSCRFPEEEEGGCELRVKFSRSADAPAYKQGQNQLYNELNLGRREEYDVLDKRRGRDPEMGGKPRRKNPQEGLYNELQKDKMAEAYSEIGMKGERRRGKGHDGLYQGLSTATKDTYDALHMQALPPR
notes: also called construct 9; pDR000083444
B15: CAR5 (LH_LCD6_HCG5_20AA) (other)
chain: B14 chain with S80Q, A88S, Y91F
notes: also called construct 5; pDR000083438
B16: CAR8 (LH_LCB7_HCF3_20AA) (other)
chain: B14 chain with M180I
notes: also called construct 8; pDR000083443
B17: CAR7 (LH_LCHumanized_HCG5_20AA) (other)
chain: B14 chain with V82L
notes: also called construct 7; pDR000083441
B18: CAR10 (LH_LCD6_HCF3_20AA) (other)
chain: B14 chain with S80Q, A88S, Y91F, M180I
notes: also called construct 10; pDR000083446
B19: CAR6 (LH_LCHumanized_HCF3_20AA) (other)
chain: B14 chain with V82L, M180I
notes: also called construct 6; pDR000083440

target: hK2 on target cells (VCaP, LNCaP/hK2, LNCaP, C4-2B) (human, UniProt P20151 19-261); assay: cell-based or functional assay
Sequence (P20151 19-261): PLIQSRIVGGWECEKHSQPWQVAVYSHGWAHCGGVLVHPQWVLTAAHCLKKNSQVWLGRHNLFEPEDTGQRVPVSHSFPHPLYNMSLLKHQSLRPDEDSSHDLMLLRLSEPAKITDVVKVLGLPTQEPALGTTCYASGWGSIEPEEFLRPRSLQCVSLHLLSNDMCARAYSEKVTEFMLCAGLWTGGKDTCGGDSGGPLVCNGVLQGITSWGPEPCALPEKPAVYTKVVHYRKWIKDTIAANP

Binder | tumor cell growth inhibition (TGI, %) of hK2 positive VCaP cells, real-time IncuCyte killing assay, 96 hours
B1 | ~100%
B2 | ~100%

target: T1, biotinylated recombinant hK2 protein (human, UniProt P20151 25-261, biotin label (EZ-Link Sulfo-NHS-LC-Biotin)); assay: flow cytometry; CAR-transduced JNL cells stained with biotinylated hK2 and streptavidin-PE
T1 construct: In-house biotin-labelled recombinant hK2 used as the flow cytometry reagent; also called biotinylated hK2; Biotin-Hk2 protein
T1 sequence (P20151 25-261): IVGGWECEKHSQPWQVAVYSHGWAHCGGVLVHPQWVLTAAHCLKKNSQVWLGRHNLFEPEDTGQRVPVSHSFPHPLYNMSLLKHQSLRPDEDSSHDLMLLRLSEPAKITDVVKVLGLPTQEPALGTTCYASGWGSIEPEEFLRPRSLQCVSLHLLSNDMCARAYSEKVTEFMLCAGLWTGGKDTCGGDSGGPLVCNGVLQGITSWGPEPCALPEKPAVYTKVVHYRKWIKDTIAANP

% of JNL cells stained with biotinylated hK2 (reported as CAR expression) | Binder
46% | B1
73.7% | B2

target: T2, soluble human Kallikrein-2 (hK2) (human, UniProt P20151 25-261); assay: SPR; antibody captured on anti-Fc sensor chip, soluble hK2 injected; 1:1 Langmuir fit, KD = koff/kon
T2 construct: The construct used in SPR, ELISA and MSD screening is not defined; the stated signal peptide (1-18) is left out, and the pro-peptide (19-24) may or may not have been present; also called KLK2; soluble hK2
T2 sequence (P20151 25-261): as above

Kd | Binder
0.078 nM | B3
0.053 nM | B4
0.04 nM | B5
0.08 nM | B6
0.46 nM | B7
34.3 nM | B8
0.7 to 1 nM | B9

target: T1, biotinylated recombinant hK2 protein; assay: flow cytometry; JNL (Jurkat NFAT-luciferase) cells transduced with the CAR, stained with biotinylated hK2 then streptavidin-PE; UTD control gate 0.021

percent of cells in the PE-positive gate (hK2 CAR) | Binder
64.3% | B10
65.4% | B11
61.9% | B12
64.3% | B13
68% | B14
66.4% | B15
66.3% | B16
71.9% | B17
60% | B18
70.3% | B19

target: T1, biotinylated recombinant hK2 protein; assay: flow cytometry; primary human T cells lentivirally transduced with the CAR (MOI 3), day 14, stained with biotinylated hK2 (1 µg/ml) then streptavidin-PE; UTD control gate 0.086

percent of CD3+ T cells in the PE-positive gate (hK2 CAR) | Binder
42.7% | B10
23.6% | B11
20% | B12
29.4% | B13
30.6% | B14
17.9% | B15
21.5% | B16
35% | B17
20.1% | B18
27.8% | B19

target: T1, biotinylated recombinant hK2 protein; assay: flow cytometry; primary human T cells lentivirally transduced with the CAR (MOI 3), day 14, stained with biotinylated hK2 (1 ug/ml) then streptavidin-PE; UTD control gate 0.065

percent of CD3+ T cells in the PE-positive gate (hK2 CAR) | Binder
45.1% | B1
56% | B2
